Results as given in US20220184221A1 (NUVOBIO, published 2022).
Where no end group is shown, it is not given here. [ ]: non-standard residue; d: D form. Nle = CCCC[C@H](N)C(=O)O

Assays:
recombinant KDM5C [1] = target: T1, recombinant KDM5C (Homo sapiens (Human), UniProt P41229 1-765); assay: OPAL peptide arrays on cellulose probed with 1 uM His-tagged KDM5C, anti-His-HRP chemiluminescence;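 note: binding of target protein to each arrayed peptide after overnight incubation at 4 °C, read as densitometric chemiluminescence signal intensity per spot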
T1 construct: Expressed in SF9 cells from baculovirus, purified on Ni-NTA and detected with an anti-His antibody; also called KDM5C-His6; JARID1CA-c022; not shown: His tag (KDM5C-His6, vector pFB-CT10HF-LIC)
T1 sequence: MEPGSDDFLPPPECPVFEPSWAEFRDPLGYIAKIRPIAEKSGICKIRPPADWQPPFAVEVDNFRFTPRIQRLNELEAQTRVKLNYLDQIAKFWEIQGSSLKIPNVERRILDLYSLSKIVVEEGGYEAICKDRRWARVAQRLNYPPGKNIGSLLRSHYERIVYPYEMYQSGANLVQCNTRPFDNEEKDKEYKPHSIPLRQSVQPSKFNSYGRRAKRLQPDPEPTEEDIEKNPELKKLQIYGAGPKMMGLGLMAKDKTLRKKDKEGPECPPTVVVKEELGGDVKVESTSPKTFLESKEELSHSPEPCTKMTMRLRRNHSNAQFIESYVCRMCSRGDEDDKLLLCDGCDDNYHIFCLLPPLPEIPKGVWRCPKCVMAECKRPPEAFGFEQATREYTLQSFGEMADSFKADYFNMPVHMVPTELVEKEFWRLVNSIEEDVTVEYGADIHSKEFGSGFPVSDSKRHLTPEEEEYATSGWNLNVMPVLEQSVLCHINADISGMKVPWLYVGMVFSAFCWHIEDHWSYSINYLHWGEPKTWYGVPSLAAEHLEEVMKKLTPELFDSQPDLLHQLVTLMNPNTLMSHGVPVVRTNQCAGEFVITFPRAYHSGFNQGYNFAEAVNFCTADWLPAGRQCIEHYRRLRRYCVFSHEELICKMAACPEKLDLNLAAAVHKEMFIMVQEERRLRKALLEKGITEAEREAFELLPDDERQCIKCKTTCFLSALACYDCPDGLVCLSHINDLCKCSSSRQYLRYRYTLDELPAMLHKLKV

recombinant KDM5C [2] = target: T1, recombinant KDM5C; assay: fluorescence polarization; fluorescein-labelled peptide, recombinant KDM5C serially diluted
Protocol: Recombinant KDM5C protein was serially diluted in a 384-well plate, followed by the addition of fluorescein-labeled inhibitor peptide in PBS buffer. The mixtures were incubated in the dark for 30 min prior to fluorescent polarization measurements at room temperature on an EnVision Multilabel Plate Reader (PerkinElmer) with the excitation set at 480 nm and emission at 535 nm. Binding curves were generated by fitting the binding data to a hyperbolic nonlinear regression model using Prism 3.0 (GraphPad software, Inc., San Diego, Calif.), which also produced the corresponding dissociation constants (Kd).

Binder | binding result (recombinant KDM5C [1]) | Kd (recombinant KDM5C [2])
SETQ[Nle]THHH [EP38] | binds | –
SETS[Nle]THHH [EP39] | binds | –
TTQSKTHHH [EP6] | binds | –
TTQTKTHHH [EP16] | binds | –
TTQQKTHHH [EP11] | binds | –
TTQS[Nle]THHH [EP26] | binds | –
TTQT[Nle]THHH [EP36] | binds | –
TTQQ[Nle]THHH [EP31] | binds | –
TDDQ[Nle]THHH [EP33] | binds | –
TDTQ[Nle]THHH [EP22] | binds | –
TDST[Nle]THHH [EP37] | binds | –
TDTS[Nle]THHH [EP27] | binds | –
TDTN[Nle]THHH [EP23] | binds | –
TDTT[Nle]THHH [EP21] | binds | –
TDDN[Nle]THHH [EP40] | binds | –
TEEQ[Nle]THHH [EP29] | binds | –
TEES[Nle]THHH [EP35] | binds | –
TEDS[Nle]THHH [EP24] | binds | –
TEEN[Nle]THHH [EP34] | binds | –
TEDT[Nle]THHH [EP28] | binds | –
TEDQ[Nle]THHH [EP25] | binds | –
GAKRHRKVLRDNI [EP43] | binds | –

Binder | binding result (recombinant KDM5C [1]) | Kd (recombinant KDM5C [2])
SDQQ[Nle]THHH [EP30] | binds | –
SDQT[Nle]THHH [EP32] | binds | –
RTKQTARKSTGG [EP41] | binds | –
TDDQKTHHH [EP13] | binds | –
TDTTKTHHH [EP1] | binds | –
TEDTKTHHH [EP8] | binds | –
TEENKTHHH [EP14] | binds | –
TEDSKTHHH (also: fluorescein label in FP assay, end not given here, Fluorescein-labelled in the fluorescence polarization assay; also called EP4 peptide) [EP4] | – | 0.11 nM
TDTSKTHHH [EP7] | binds | –
TDSTKTHHH [EP17] | binds | –
TEDQKTHHH [EP5] | binds | –
TDTQKTHHH [EP2] | binds | –
TDDNKTHHH [EP20] | binds | –
TDTNKTHHH [EP3] | binds | –
TEEQKTHHH [EP9] | binds | –
TEESKTHHH [EP15] | binds | –
SDQQKTHHH [EP10] | binds | –
SDQTKTHHH [EP12] | binds | –
SETQKTHHH [EP18] | binds | –
SETSKTHHH [EP19] | binds | –
GAKRHR[Nle]VLRDNI [EP44] | binds | –
